Source: IntAct's records for PubMed 15299139

B1: Axial regulator YABBY 4 (Arabidopsis thaliana (Mouse-ear cress)), Q9LDT3 (parent)
chain: MTKLPNMTTTLNHLFDLPGQICHVQCGFCTTILLVSVPFTSLSMVVTVRCGHCTSLLSVNLMKASFIPLHLLASLSHLDETGKEEVAATDGVEEEAWKVNQEKENSPTTLVSSSDNEDEDVSRVYQVVNKPPEKRQRAPSAYNCFIKEEIRRLKAQNPSMAHKEAFSLAAKNWAHFPPAHNKRAASDQCFCEEDNNAILPCNVFEDHEESNNGFRERKAQRHSIWGKSPFE
partner: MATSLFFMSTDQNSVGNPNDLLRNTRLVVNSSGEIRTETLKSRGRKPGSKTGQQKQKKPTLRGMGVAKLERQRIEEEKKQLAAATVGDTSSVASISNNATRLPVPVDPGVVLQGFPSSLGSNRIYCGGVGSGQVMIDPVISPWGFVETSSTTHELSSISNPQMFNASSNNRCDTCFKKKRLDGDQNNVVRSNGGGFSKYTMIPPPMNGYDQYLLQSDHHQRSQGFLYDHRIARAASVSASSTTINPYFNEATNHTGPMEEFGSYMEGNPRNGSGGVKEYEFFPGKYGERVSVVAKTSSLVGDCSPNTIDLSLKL

Variants of: B1
Conditions: with spl_arath SPL

Variant | effect of a mutation on the interaction
MTKLPNMTTTLNHLFDLPGQICHVQCGFSTTILLVSVPFTSLSMVVTVRCGHCTSLLSVNLMKASFIPLHLLASLSHLDETGKEEVAATDGVEEEAWKVNQEKENSPTTLVSSSDNEDEDVSRVYQVVNKPPEKRQRAPSAYNCFIKEEIRRLKAQNPSMAHKEAFSLAAKNWAHFPPAHNKRAASDQCFCEEDNNAILPCNVFEDHEESNNGFRERKAQRHSIWGKSPFE [C29S] | decreasing interaction
